Test results published in article PMC10447908, “Customizably designed multibodies neutralize SARS-CoV-2 in a variant-insensitive manner” (Frontiers in Immunology, 2023).

Target: T1, SARS-CoV-2 Spike receptor binding domain, Wuhan (ancestral) variant (SARS-CoV-2, UniProt P0DTC2, biotinylated in vitro when needed)
T1 construct: also called Wuhan RBD; soluble (monomeric) RBD
Assay: flow cytometry on cells; cell-surface binding inhibition: 36 nM RBD preincubated with 1 to 1088 nM of the molecule for 1 h at 37°C in PBS, 1% BSA, 2 mM EDTA, then 1x10^5 HEK-293T-hACE2 cells for 1 h on ice; RBD on cells revealed with Strep-Tactin-Dye649; blocker and RBD meet in solution
Settings: both partners purified

B1: Binder C (VHH)
VHH: QVQLVESGGGLVQPGGSLRLSCAASGITLDYYAIGWFRQAPGKEREGVSRIRSSDGSTNYADSVKGRFTMSRDNAKNTVYLQMNSLKPEDTAVYYCAYGPLTKYGSSWYWPYEYDYWGQGTQVTVSS
notes: not shown: His6, N-terminal, cleaved; SUMO, N-terminal, cleaved
binding result: binds
